Reference: patent publication US20220162312A1 (WUXI BIOLOGICS IRELAND, published 2022)
Substitutions are numbered along the chain they refer to. Names and notes keep the numbering of the source. Values belong to the binder of their own block, whether it stands above or below them.

Experiments:
[1] = target: T1, CD20 on Raji cells (CD20+/CD3- cells) (human, UniProt P11836 1-297); test: cell-based or functional assay
T1 sequence (looked up): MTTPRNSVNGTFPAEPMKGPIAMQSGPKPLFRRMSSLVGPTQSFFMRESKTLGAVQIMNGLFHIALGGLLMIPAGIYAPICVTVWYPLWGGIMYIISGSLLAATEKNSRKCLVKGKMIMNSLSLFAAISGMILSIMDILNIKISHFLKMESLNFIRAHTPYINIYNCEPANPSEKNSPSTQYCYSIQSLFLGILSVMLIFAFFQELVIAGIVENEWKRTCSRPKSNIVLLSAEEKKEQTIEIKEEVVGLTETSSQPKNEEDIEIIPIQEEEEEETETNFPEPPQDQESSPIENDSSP

[2] = target: T1, CD20 on Raji cells (CD20+/CD3- cells); test: cell-based or functional assay; remark: listed apart in the source
[3] = target: T1, CD20 on Raji cells (CD20+/CD3- cells); test: cell-based or functional assay; remark: listed apart in the source
[4] = target: T1, CD20 on Raji cells (CD20+/CD3- cells); test: cell-based or functional assay; remark: listed apart in the source
[5] = target: T2, CD3 on Jurkat cells (CD3+/CD20- cells) (human, UniProt P07766 23-207; P04234 22-171; P09693 23-182); test: flow cytometry on Jurkat cells (CD3+/CD20-)
T2 construct: whole, on cells; also called human CD3; Jurkat 2B8
T2 sequence (P07766 23-207, chain 1 of 3): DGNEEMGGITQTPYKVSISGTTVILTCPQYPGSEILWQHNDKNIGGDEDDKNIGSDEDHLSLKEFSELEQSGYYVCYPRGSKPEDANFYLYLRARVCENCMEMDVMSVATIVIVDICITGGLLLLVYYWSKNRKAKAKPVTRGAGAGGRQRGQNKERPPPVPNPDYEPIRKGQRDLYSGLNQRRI
T2 sequence (P04234 22-171, chain 2 of 3): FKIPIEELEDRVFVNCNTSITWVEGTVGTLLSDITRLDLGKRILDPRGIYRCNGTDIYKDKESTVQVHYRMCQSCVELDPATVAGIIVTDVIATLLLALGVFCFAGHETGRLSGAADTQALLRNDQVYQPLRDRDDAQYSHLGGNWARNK
T2 sequence (P09693 23-182, chain 3 of 3): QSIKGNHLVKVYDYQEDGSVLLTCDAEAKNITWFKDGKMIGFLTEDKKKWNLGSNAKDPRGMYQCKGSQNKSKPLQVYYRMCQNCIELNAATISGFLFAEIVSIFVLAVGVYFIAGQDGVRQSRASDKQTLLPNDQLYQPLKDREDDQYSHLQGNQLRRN
Procedure: (§1) The binding of W3278 BsAb to target cells was determined by flow cytometry. Briefly, 1×10⁵/well of target cells (CD3+/CD20− cells or CD20+/CD3− cells) were incubated with serial dilutions of W3278 BsAb or human IgG4 isotype control antibody at 4° C. for 60 minutes. After incubation, cells were washed twice with cold 1% BSA/1×PBS and Alexa Fluor647 conjugated Goat anti-human IgG Fc (Jackson-109-605-098) was then added and incubated for 30 minutes at 4° C. After washing twice, the geometric mean fluorescence (MFI) of stained cells was measured using a FACS Canto II cytometer (BD Biosciences). Wells containing no antibody or fluorescent secondary antibody only were used to establish background fluorescence. The EC₅₀ values of cell binding were determined using GraphPad Prism 5 software (GraphPad Software, La Jolla, Calif.) with values calculated using a four-parameter non-linear regression analysis.

[6] = target: T1, CD20 on Raji cells (CD20+/CD3- cells); test: flow cytometry on Raji cells (CD20+/CD3-)
Procedure: as §1

- CD4+ T cell IL-2 release EC50, with Raji cells [1]: 11.4 pM
- CD4+ T cell TNF-a release EC50, with Raji cells [1]: 13.5 pM
- T cell CD69 expression EC50 (Table 5B), CD4+/Raji [3]: 0.2 pM
- T cell CD69 expression EC50 (Table 5B), CD8+/Raji [3]: 0.4 pM
- T cell CD69 expression EC50 (Table 5A as titled), CD4+/Raji [4]: 0.6 pM
- T cell CD69 expression EC50 (Table 5A as titled), CD8+/Raji [4]: 0.8 pM
B1: W3278-U2T3.F18R-1.uIgG4.SP (bispecific antibody)
heavy 1: QVQLQQPGAELVKPGASVKMSCKASGYTFTSYNMHWVKQTPGRGLEWIGAIYPGNGDTSYNQKFKGKATLTADKSSSTAYMQLSSLTSEDSAVYYCARSTYYGGDWYFNVWGAGTTVTVSAASTKGPSVFPLAPCSRSTSESTAALGCLVKDYFPEPVTVSWNSGALTSGVHTFPAVLQSSGLYSLSSVVTVPSSSLGTKTYTCNVDHKPSNTKVDKRVGGGGSGGGGSQVQLVQSGAEVKKPGSSVKVSCKASGFAFTDYYIHWVRQAPGQGLEWMGWISPGNVNTKYNENFKGRVTITADKSTSTAYMELSSLRSEDTAVYYCARDGYSLYYFDYWGQGTLVTVLEDLKNVFPPEVAVFEPSEAEISHTQKATLVCLATGFYPDHVELSWWVNGKEVHSGVCTDPQPLKEQPALQDSRYALSSRLRVSATFWQNPRNHFRCQVQFYGLSENDEWTQDRAKPVTQIVSAEAWGRYGPPCPPCPAPEFLGGPSVFLFPPKPKDTLMISRTPEVTCVVVDVSQEDPEVQFNWYVDGVEVHNAKTKPREEQFNSTYRVVSVLTVLHQDWLNGKEYKCKVSNKGLPSSIEKTISKAKGQPREPQVYTLPPCQEEMTKNQVSLWCLVKGFYPSDIAVEWESNGQPENNYKTTPPVLDSDGSFFLYSRLTVDKSRWQEGNVFSCSVMHEALHNHYTQKSLSLSLG
heavy 2: QVQLQQPGAELVKPGASVKMSCKASGYTFTSYNMHWVKQTPGRGLEWIGAIYPGNGDTSYNQKFKGKATLTADKSSSTAYMQLSSLTSEDSAVYYCARSTYYGGDWYFNVWGAGTTVTVSAASTKGPSVFPLAPCSRSTSESTAALGCLVKDYFPEPVTVSWNSGALTSGVHTFPAVLQSSGLYSLSSVVTVPSSSLGTKTYTCNVDHKPSNTKVDKRVESKYGPPCPPCPAPEFLGGPSVFLFPPKPKDTLMISRTPEVTCVVVDVSQEDPEVQFNWYVDGVEVHNAKTKPREEQFNSTYRVVSVLTVLHQDWLNGKEYKCKVSNKGLPSSIEKTISKAKGQPREPQVCTLPPSQEEMTKNQVSLSCAVKGFYPSDIAVEWESNGQPENNYKTTPPVLDSDGSFFLVSRLTVDKSRWQEGNVFSCSVMHEALHNHYTQKSLSLSLG
light 1: QIVLSQSPAILSASPGEKVTMTCRASSSVSYIHWFQQKPGSSPKPWIYATSNLASGVPVRFSGSGSGTSYSLTISRVEAEDAATYYCQQWTSNPPTFGGGTKLEIKRTVAAPSVFIFPPSDEQLKSGTASVVCLLNNFYPREAKVQWKVDNALQSGNSQESVTEQDSKDSTYSLSSTLTLSKADYEKHKVYACEVTHQGLSSPVTKSFNRGEC
light 2: DIVMTQSPDSLAVSLGERATINCKSSQSLLNSRTRKNYLAWYQQKPGQPPKLLIYWASTRQSGVPDRFSGSGSGTDFTLTISSLQAEDVAVYYCTQSHTLRTFGGGTKVEIKPDIQNPDPAVYQLRDSKSSDKSVCLFTDFDSQTQVSQSKDSDVYITDKCVLDMRSMDFKSNSAVAWSQKSDFACANAFQNSIIPEDTFFPSPESS
- cytotoxicity EC50, NAMALWA cells, CD8+ T cells as effectors [2]: 46.8 pM
- cytotoxicity EC50, Raji cells, CD8+ T cells as effectors [2]: 0.52 pM
- cytotoxicity EC50, Ramos cells, CD8+ T cells as effectors [2]: 1.25 pM

- EC50 [5]: 26600 pM
- TOP MFI [5]: 536 MFI
- EC50 [6]: 1300 pM
- TOP MFI [6]: 55400 MFI
B2: W3278-U3T2.F18R-1.uIgG4.SP (bispecific antibody)
heavy 1: EVQLVESGGGLVQPGRSLRLSCAASGFTFNDYAMHWVRQAPGKGLEWVSTISWNSGSIGYADSVKGRFTISRDNAKKSLYLQMNSLRAEDTALYYCAKDIQYGNYYYGMDVWGQGTTVTVSSASTKGPSVFPLAPCSRSTSESTAALGCLVKDYFPEPVTVSWNSGALTSGVHTFPAVLQSSGLYSLSSVVTVPSSSLGTKTYTCNVDHKPSNTKVDKRVGGGGSGGGGSQVQLVQSGAEVKKPGSSVKVSCKASGYSFTTYYIHWVRQAPGQGLEWMGWIFPGNDNIKYSEKFKGRVTITADKSTSTAYMELSSLRSEDTAVYYCAIDSVSIYYFDYWGQGTLVTVLEDLKNVFPPEVAVFEPSEAEISHTQKATLVCLATGFYPDHVELSWWVNGKEVHSGVCTDPQPLKEQPALQDSRYALSSRLRVSATFWQNPRNHFRCQVQFYGLSENDEWTQDRAKPVTQIVSAEAWGRYGPPCPPCPAPEFLGGPSVFLFPPKPKDTLMISRTPEVTCVVVDVSQEDPEVQFNWYVDGVEVHNAKTKPREEQFNSTYRVVSVLTVLHQDWLNGKEYKCKVSNKGLPSSIEKTISKAKGQPREPQVYTLPPCQEEMTKNQVSLWCLVKGFYPSDIAVEWESNGQPENNYKTTPPVLDSDGSFFLYSRLTVDKSRWQEGNVFSCSVMHEALHNHYTQKSLSLSLG
heavy 2: EVQLVESGGGLVQPGRSLRLSCAASGFTFNDYAMHWVRQAPGKGLEWVSTISWNSGSIGYADSVKGRFTISRDNAKKSLYLQMNSLRAEDTALYYCAKDIQYGNYYYGMDVWGQGTTVTVSSASTKGPSVFPLAPCSRSTSESTAALGCLVKDYFPEPVTVSWNSGALTSGVHTFPAVLQSSGLYSLSSVVTVPSSSLGTKTYTCNVDHKPSNTKVDKRVESKYGPPCPPCPAPEFLGGPSVFLFPPKPKDTLMISRTPEVTCVVVDVSQEDPEVQFNWYVDGVEVHNAKTKPREEQFNSTYRVVSVLTVLHQDWLNGKEYKCKVSNKGLPSSIEKTISKAKGQPREPQVCTLPPSQEEMTKNQVSLSCAVKGFYPSDIAVEWESNGQPENNYKTTPPVLDSDGSFFLVSRLTVDKSRWQEGNVFSCSVMHEALHNHYTQKSLSLSLG
light 1: not shown
light 2: not shown
light 3: B1 light 2 with Q61K, H98F, T99I
notes: Human IgG4 (S228P) knobs-into-holes, same F18R-1 format as m3, so L1 probably stands twice; also called W3278-U3T2.F18R-1.ulgG4.SP
